This passage reports Kd results from doi:10.1101/2020.04.03.024018, “High-affinity agonist binding to C5aR results from a cooperative two-site binding mechanism” (bioRxiv, 2020).

Common to all, as to settings: both partners purified
For assay [1], the target named is T1, C5aRΔTyr mutant (Y11F and Y14F) (human, UniProt P21730 1-350, Y11F | Y14F).
T1 construct: human C5aR with the two sulfation-site tyrosines changed; A legend and the methods print the second mutation as F14F; also called C5aR-d2Y; source: HEK-293S GnTI- cells (BacMam), purified, reconstituted in DOPC/CHS liposomes
T1 sequence (looked up): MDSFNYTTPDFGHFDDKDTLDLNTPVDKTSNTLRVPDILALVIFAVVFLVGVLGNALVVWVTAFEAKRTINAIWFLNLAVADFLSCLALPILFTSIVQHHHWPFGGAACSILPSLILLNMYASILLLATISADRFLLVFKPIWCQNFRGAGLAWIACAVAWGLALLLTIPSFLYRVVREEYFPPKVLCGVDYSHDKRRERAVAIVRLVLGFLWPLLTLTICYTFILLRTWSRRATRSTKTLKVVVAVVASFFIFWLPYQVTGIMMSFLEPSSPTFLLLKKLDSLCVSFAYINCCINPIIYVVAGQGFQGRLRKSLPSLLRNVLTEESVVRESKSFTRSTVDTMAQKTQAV
Briefly: single-molecule force spectroscopy (FD-based AFM); ligand on the AFM tip (PEG27 linker, tris-NTA-Ni2+); receptor in DOPC/CHS liposomes adsorbed on mica; high loading rates only (10^5-10^7 pN/s); Friddle-Noy-de Yoreo fit, Kd calculated from dGbu; 20 mM HEPES, 300 mM NaCl, about 24 °C.

Assay [2] addresses T2, C5a anaphylatoxin chemotactic receptor 1 (C5aR), wild type (human, UniProt P21730 1-350, sulfonated tyrosines (sulfonation detected by anti-sulfotyrosine Western blot; eliminated by the Y11F and Y14F mutations)).
T2 construct: human G protein-coupled C5a receptor (C5aR), wild type; also called C5aR^WT; wtC5aR; source: HEK-293S GnTI- cells (BacMam), purified (Ni-NTA, anti-Flag M1 resin, SEC), reconstituted in DOPC/CHS liposomes; not shown: His8, C-terminal, kept
T2 sequence (looked up): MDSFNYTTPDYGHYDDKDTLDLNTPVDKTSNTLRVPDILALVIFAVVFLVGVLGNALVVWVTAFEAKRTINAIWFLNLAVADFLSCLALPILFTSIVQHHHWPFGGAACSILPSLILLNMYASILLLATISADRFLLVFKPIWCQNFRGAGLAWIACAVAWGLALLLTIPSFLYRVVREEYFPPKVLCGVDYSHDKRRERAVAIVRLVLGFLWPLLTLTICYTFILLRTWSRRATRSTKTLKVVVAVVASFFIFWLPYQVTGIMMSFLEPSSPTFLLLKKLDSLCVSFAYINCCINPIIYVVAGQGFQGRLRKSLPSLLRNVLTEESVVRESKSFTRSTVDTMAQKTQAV
Described as above.

Assay [3] concerns the target T2, C5a anaphylatoxin chemotactic receptor …. Nature of the assay: single-molecule force spectroscopy (force-volume AFM + FD-based AFM); ligand on the AFM tip (PEG27 linker, tris-NTA-Ni2+); receptor in DOPC/CHS liposomes adsorbed on mica; low and high loading rates combined (10^2-10^7 pN/s); Friddle-Noy-de Yoreo fit, Kd calculated from dGbu; 20 mM HEPES, 300 mM NaCl, about 24 °C.

B1: complement C5a anaphylatoxin (ligand, UniProt P01031 678-751, looked up)
chain: TLQKKIEEIAAKYKHSVVKKCCYDGACVNNDETCEQRAARISLGPRCIKAFTECCVVASQLRANISHKDMQLGR
notes: C5a anaphylatoxin, 74-aa glycoprotein, cut product of complement C5; C-terminal residue R74; numbers count on: the mature C5a; Held on the AFM tip through a PEG27 linker and tris-NTA-Ni2+; also called C5a ligand; endogenous C5a ligand
In the case of B1, the dissociation constant (Kd) in assay [1] is around 20000 µM; in assay [2], around 0.001 µM; in assay [3] it was around 0.00609 µM.
